According to patent publication US6887705B1, “Tyrosine phosphorylated cleavage furrow-associated proteins (PSTPIPs)” (Genentech, Inc., priority 1997, dated 2005):
Values belong to the molecule of their own block, whether it stands above or below them.

Tests used:
3T3 cells = test: Overexpression of PSTPIP in transfected 3T3 cells, confocal microscopy; format: cell-based, murine; conditions: overexpression under cytomegalovirus promoter
Protocol: Rabbit polyclonal antibodies were produced against a GST-PSTPIP fusion protein. The complete PSTPIP-GST fusion protein was purified on GSH-sepharose and injected intramuscularly at 2 sites with 200 μg fusion protein and subcutaneously at multiple sites with a total of 300 μg PSTPIP-GST fusion protein in Complete Freunds Adjuvant. Rabbits were boosted every 3 weeks with 100 μg fusion protein in Incomplete Freunds. 15 ml of rabbit sera was reacted with 0.5 mg PSTPIP-GST-GSH-Sepharose for 3 hours at 4° C. with gentle rotation. The resin was collected by centrifugation and washed with 10 column volumes of PBS. Immunoglobulin was eluted from the affinity matrix with 100 mM acetic acid, 500 mM NaCl, neutralized with NaOH, and then dialyzed overnight with PBS. NIH 3T3 cells were seeded at 100,000 cells per chamber slide and allowed to adhere overnight. The cells were transfected using Lipofectamine™ (2 ug pRK.PIP.FLAG.C/12 ul Lipofectamine in 0.8 ml OPTI-MEM) for 5 hours. The DNA/Lipofectamine™ solution was removed and fresh serum containing medium added. […] Cells were stained with 0.4 μg/ml rabbit anti-PIP or 0.4 μg/ml rabbit IgG and detected with Cy3-corjugated goat anti-rabbit. […]

[1] = target: T1, full-length PTP HSCF with an N-terminal hemagglutinin epitope tag (UniProt Q61152 1-453); test: co-immunoprecipitation from co-transfected COS cells
T1 construct: range 1-453; In vitro translated or expressed in COS cells; also called the phosphatase; wild type PTP HSCF
T1 sequence (looked up): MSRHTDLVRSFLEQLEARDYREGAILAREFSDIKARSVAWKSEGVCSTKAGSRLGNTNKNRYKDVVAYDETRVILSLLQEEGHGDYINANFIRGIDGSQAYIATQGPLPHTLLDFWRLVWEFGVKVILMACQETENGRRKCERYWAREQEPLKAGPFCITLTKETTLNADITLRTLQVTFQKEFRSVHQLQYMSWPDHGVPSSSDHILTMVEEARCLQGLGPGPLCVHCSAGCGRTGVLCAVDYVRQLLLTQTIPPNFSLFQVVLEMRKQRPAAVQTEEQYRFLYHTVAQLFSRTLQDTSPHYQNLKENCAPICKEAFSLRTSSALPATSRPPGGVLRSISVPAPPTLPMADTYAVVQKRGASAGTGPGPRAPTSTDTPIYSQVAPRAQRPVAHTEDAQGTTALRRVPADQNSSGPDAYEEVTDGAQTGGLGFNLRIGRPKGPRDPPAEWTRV
Text: The resultant precipitates were resolved on SDS polyacrylamide gels and probed with anti-FLAG antibody (to detect PST PIP), anti-HA antibody (to detect PTP HSCF) and anti-pY (anti-phosphotyrosine antibody) to detect this modified residue on these proteins. Note that the $W232A$ mutant of PST PIP is neither coprecipitated with PTP HSCF nor is it "substrate trapped" (as determined by hyperphosphorylation) by the dominant negative (C-S) form of PTP HSCF, while the wild type form of the protein (PST PIP wt) is found in a complex with precipitated PTP HSCF and is hyperphosphorylated ("substrate trapped" (Jia et al., *Science* 268(5218):1754–1758 (1995); Garton et al., *Mol. Cell. Biol.* 16(11):6408–6418 (1996); Flint et al., *Proc. Natl. Acad. Sci. USA* 94(5):1680–1685 (1997); Spencer et al. (1997), supra)) by dominant negative (C-S) PTP HSCF.
In vitro binding analyses between various PTP HSCF and PST PIP constructs were performed as previously described (Spencer et al, (1997), supra). Briefly, plasmids were transcribed and translated in vitro using the TnT Rabbit Reticulocyte Lysate System (Promega). […] Samples were than reacted with GST fusion proteins at various concentrations, and the bound proteins were centrifuged using glutathione-sepharose beads and analyzed on SDS polyacrylamide gels. […]

B1: PSTPIP: murine PST Phosphatase Interacting Protein, 415 residues (SEQ ID NO:1) (protein)
chain: MMAQLQFRDAFWCRDFTAHTGYEVLLQRLLDGRKMCKDVEELLRQRAQAEERYGKELVQIARKAGGQTEMNSLRTSFDSLKQQTENVGSAHIQLALALREELRSLEEFRERQKEQRKKYEAIMDRVQKSKLSLYKKTMESKKAYDQKCRDADDAEQAFERVSANGHQKQVEKSQNKAKQCKESATEAERVYRQNIEQLERARTEWEQEHRTTCEAFQLQEFDRLTILRNALWVHCNQLSMQCVKDDELYEEVRLTLEGCDVEGDINGFIQSKSTGREPPAPVPYQNYYDREVTPLIGSPSIQPSCGVIKRFSGLLHGSPKTTPSAPAASTETLTPTPERNELVYASIEVQATQGNLNSSAQDYRALYDYTAQNSDELDISAGDILAVILEGEDGWWTVERNGQRGFVPGSYLEKL
modifications: Mus Musculus
cell morphology on overexpression (3T3 cells): induced a remarkable morphological change in a high percentage of cells

binding result [1]: no binding
B2: W232A mutant of PST PIP, C-terminal FLAG (other)
chain: MMAQLQFRDAFWCRDFTAHTGYEVLLQRLLDGRKMCKDVEELLRQRAQAEERYGKELVQIARKAGGQTEMNSLRTSFDSLKQQTENVGSAHIQLALALREELRSLEEFRERQKEQRKKYEAIMDRVQKSKLSLYKKTMESKKAYDQKCRDADDAEQAFERVSANGHQKQVEKSQNKAKQCKESATEAERVYRQNIEQLERARTEWEQEHRTTCEAFQLQEFDRLTILRNALAVHCNQLSMQCVKDDELYEEVRLTLEGCDVEGDINGFIQSKSTGREPPAPVPYQNYYDREVTPLIGSPSIQPSCGVIKRFSGLLHGSPKTTPSAPAASTETLTPTPERNELVYASIEVQATQGNLNSSAQDYRALYDYTAQNSDELDISAGDILAVILEGEDGWWTVERNGQRGFVPGSYLEKLDYKDDDDK
notes: In vitro translated or expressed in COS cells; also called W232A PST PIP; PST PIP with an alanine replacement mutation at tryptophan232
